PMC6179994

Target: full-length rabbit TRPV5 (transient receptor potential vanilloid 5) (rabbit) (UniProt Q9XSM3)
Test: cryo-EM structure; detergent solubilized TRPV5 (DMNG) incubated 1 h with 10 mM CaCl2 and rat CaM at 1:20 (TRPV5 tetramer:CaM), then SEC; map at 4.4 Å without applied symmetry

Sequence of full-length rabbit TRPV5 (transient receptor potential vanilloid 5) (rabbit) (Q9XSM3 whole entry): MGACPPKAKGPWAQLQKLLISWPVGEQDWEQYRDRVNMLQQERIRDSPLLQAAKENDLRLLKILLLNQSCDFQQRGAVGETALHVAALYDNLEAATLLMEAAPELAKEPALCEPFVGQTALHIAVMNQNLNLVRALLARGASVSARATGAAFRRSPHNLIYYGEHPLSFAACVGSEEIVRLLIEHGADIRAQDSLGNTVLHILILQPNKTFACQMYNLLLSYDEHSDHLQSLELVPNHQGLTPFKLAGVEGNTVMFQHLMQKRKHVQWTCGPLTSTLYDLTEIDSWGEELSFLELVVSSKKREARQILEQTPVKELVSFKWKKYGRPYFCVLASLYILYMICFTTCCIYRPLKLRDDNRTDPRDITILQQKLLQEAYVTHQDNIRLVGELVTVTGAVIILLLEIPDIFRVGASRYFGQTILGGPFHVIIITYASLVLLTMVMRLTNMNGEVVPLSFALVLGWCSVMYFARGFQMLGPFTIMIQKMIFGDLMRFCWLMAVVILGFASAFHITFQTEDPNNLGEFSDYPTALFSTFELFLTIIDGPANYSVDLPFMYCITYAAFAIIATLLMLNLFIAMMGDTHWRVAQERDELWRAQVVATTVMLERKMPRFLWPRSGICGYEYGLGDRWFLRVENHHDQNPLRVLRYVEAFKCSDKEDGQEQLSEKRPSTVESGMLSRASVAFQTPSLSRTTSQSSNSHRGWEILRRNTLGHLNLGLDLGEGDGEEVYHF

**Q.** Which stoichiometry N (CaM per TRPV5 tetramer) does the source give for “rat calmodulin (CaM), calcium-activated (from UniProt P0DP29 1-149) (natural protein)” here?
**A.** 1
